Measured values as given in doi:10.1101/2020.05.14.095364 (bioRxiv, 2020).

B1: GST-CGN(1-70) (domain or fragment, canine, UniProt A7YH32 1-70, looked up)
chain: MEQASTMAEPRGPVDHGVQIRFITEPVGNAEMDTLRRGGRRPAKDARANTYGVAVRVQGIAGQPFVVLNS
B2: GFP-tagged hZO-1 (residues 1619-1748), isolated ZU5 fragment (domain or fragment, human, UniProt Q07157 1619-1748, looked up)
chain: SAVEEDEDEDGHTVVATARGIFNSNGGVLSSIETGVSIIIPQGAIPEGVEQEIYFKVCRDNSILPPLDKEKGETLLSPLVMCGPHGLKFLKPVELRLPHCDPKTWQNKCLPGDPNYLVGANCVSVLIDHF

Key:
[1] = target: B2; test: quantitative GST-pulldown supernatant depletion assay
GST-CGN(1-70) = target: B1; test: pull-down

Kd [1]	fold binding against the other ZO-1 fragments (GST-CGN(1-70))	Binder
40.4 nM	–	B1
–	> 4 fold	B2
